According to article PMC3100782 (Biochemistry, 2011):
Non-standard residues stand in square brackets, D forms with d. pS = N[C@@H](COP(=O)(O)O)C(=O)O

Columns and labels:
[1] = target: fluorescent BACH1-derived peptide (Fluorescein-GGSRSTpSPTFNK-NH2); assay: fluorescence polarisation
[2] = target: wild-type BRCA1 BRCT domain (human, UniProt P38398); assay: fluorescence polarisation

| Molecule | Kd [1] | Kd [2] |
| --- | --- | --- |
| BRCA1 BRCT domain R1699W variant (from UniProt P38398) (domain or fragment) | > 200000 nM | – |
| Fluorescein-GGSRST[pS]PTFNK-NH2 [fluorescent BACH1-derived peptide (Fluorescein-GGSRSTpSPTFNK-NH2)] | – | 1200 ± 100 nM |
